T1: Chs4p^C693S (S. cerevisiae, UniProt P34226 1-696, C693S)
T1 sequence (looked up): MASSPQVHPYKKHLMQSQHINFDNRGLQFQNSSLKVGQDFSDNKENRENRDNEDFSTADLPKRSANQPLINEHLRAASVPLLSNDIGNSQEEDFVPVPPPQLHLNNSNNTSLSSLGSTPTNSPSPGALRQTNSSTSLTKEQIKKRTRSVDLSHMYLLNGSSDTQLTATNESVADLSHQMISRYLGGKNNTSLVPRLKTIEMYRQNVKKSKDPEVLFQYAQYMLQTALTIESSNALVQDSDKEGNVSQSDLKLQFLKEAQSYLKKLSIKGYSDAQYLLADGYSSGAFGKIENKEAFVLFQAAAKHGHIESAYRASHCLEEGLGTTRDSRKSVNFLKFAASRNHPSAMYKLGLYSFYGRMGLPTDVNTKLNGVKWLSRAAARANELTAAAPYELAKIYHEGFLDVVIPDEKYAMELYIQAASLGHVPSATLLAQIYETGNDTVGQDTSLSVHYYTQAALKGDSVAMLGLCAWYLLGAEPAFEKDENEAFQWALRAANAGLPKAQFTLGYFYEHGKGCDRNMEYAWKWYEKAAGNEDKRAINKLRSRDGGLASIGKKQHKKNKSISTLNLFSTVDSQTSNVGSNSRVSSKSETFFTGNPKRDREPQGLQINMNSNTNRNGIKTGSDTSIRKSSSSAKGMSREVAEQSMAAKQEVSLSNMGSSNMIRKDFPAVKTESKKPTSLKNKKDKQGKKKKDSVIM

T2: Chs4p (S. cerevisiae, UniProt P34226 1-696)
T2 sequence (looked up): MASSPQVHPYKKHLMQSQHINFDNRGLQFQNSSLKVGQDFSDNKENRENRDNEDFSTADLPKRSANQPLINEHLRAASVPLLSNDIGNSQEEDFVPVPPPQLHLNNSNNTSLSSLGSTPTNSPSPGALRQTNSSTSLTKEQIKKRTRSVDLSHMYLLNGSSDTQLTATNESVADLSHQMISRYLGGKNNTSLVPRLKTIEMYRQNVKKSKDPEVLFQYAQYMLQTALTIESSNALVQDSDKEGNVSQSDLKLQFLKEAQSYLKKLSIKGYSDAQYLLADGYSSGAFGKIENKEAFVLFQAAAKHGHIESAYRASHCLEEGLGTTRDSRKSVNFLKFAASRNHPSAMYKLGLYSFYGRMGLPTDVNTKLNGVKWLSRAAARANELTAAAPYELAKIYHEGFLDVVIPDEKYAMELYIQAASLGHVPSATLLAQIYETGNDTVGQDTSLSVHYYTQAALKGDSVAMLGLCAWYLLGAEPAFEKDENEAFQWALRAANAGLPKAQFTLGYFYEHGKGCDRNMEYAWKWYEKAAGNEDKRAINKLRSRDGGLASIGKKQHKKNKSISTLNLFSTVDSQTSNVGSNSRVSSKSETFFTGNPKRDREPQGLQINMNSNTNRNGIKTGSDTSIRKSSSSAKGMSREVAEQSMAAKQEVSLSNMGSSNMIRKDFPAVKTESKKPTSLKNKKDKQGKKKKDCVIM


Assays:
Test in all cases: two-hybrid
[1] = target: Chs4p (S. cerevisiae) (UniProt P34226)
[2] = target: Cdc10p (S. cerevisiae) (UniProt P25342)
Sequence of Cdc10p (S. cerevisiae) (P25342 whole entry): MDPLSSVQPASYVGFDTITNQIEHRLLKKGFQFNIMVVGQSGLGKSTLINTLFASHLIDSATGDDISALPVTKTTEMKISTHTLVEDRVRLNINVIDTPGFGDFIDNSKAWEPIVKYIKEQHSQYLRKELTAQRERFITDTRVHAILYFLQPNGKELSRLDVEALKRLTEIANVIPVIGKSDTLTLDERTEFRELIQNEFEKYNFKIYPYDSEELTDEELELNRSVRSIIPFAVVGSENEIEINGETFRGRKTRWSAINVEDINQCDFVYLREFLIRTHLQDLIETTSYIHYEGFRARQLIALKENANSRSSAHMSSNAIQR

[3] = target: Chs4p^C693S (S. cerevisiae) (UniProt P34226)
[4] = target: T1, Chs4p^C693S
[5] = target: the molecule itself
[6] = target: T2, Chs4p

Sequence of Bni4pE (P53858 whole entry, the tested form may be a part): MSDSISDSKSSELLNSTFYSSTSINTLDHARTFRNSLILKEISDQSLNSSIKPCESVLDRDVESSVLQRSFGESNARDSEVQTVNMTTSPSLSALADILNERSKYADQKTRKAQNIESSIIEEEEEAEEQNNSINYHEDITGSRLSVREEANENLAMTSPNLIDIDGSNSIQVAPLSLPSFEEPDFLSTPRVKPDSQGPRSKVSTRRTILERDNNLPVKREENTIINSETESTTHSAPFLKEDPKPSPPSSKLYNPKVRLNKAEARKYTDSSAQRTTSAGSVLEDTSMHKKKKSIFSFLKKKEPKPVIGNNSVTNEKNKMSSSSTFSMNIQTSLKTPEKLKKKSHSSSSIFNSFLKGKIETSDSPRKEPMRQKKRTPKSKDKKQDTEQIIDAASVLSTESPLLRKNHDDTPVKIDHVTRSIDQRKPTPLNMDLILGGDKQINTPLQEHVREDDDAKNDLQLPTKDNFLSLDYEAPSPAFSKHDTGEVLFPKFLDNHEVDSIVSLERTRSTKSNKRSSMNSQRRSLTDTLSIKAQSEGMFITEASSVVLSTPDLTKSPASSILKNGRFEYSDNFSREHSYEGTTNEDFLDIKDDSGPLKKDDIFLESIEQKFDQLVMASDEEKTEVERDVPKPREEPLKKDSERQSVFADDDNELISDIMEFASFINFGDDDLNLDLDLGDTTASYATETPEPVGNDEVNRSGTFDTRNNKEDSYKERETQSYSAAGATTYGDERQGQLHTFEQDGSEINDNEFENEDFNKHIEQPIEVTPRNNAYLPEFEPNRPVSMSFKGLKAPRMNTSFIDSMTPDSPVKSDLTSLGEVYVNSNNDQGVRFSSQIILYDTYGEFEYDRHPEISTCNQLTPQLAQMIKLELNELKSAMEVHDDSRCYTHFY

Row | units of β-galactosidase activity (units of β-galactosidase activity) [1] | units of β-galactosidase activity (units of β-galactosidase activity) [2] | units of β-galactosidase activity (units of β-galactosidase activity) [3] | units of β-galactosidase activity [4] | units of β-galactosidase activity [6] | Molecule | units of β-galactosidase activity [5]
1 | 238 | 1010 | 2220 |  |  | Bni4pE (from UniProt P53858 65-730) (domain or fragment) | 
2 |  |  |  | 568 units of β-galactosidase activity | 617 units of β-galactosidase activity | Chs3p^Δ700 (domain or fragment, S. cerevisiae, UniProt P29465 1-700, looked up) MTGLNGDDPDDYYLNLNQDEESLLRSRHSVGSGAPHRQGSLVRPERSRLNNPDNPHFYYAQKTQEQMNHLDVLPSSTGVNPNATRRSGSLRSKGSVRSKFSGRETDSYLLQDMNTTDKKASVKISDEGVAEDEFDKDGDVDNFEESSTQPINKSIKPLRKETNDTLSFWQMYCYFITFWAPAPILAFCGMPKKERQMAWREKVALISVILYIGAIVAFLTFGFTKTVCSSSKLRLKNNEVSTEFVVINGKAYELDTSSRSGIQDVEVDSDTLYGPWSDAGKDASFLFQNVNGNCHNLITPKSNSSIPHDDDNNLAWYFPCKLKNQDGSSKPNFTVENYAGWNCHTSKEDRDAFYGLKSKADVYFTWDGIKNSSRNLIVYNGDVLDLDLLDWLEKDDVDYPVVFDDLKTSNLQGYDLSLVLSNGHERKIARCLSEIIKVGEVDSKTVGCIASDVVLYVSLVFILSVVIIKFIIACYFRWTVARKQGAYIVDNKTMDKHTNDIEDWSNNIQTKAPLKEVDPHLRPKKYSKKSLGHKRASTFDLLKKHSSKMFQFNESVIDLDTSMSSSLQSSGSYRGMTTMTTQNAWKLSNENKAVHSRNPSTLLPTSSMFWNKATSSPVPGSSLIQSLDSTIIHPDIVQQPPLDFMPYGFPLIHTICFVTCYSEDEEGLRTTLDSLSTTDYPNSHKLLMVVCDGLIKGSGN | 123 units of β-galactosidase activity
